Source: patent publication US20040043378

Molecular target: T1, wild type HIV-1 Tat protein, FLAG-tagged, expressed in cells
T1 chain: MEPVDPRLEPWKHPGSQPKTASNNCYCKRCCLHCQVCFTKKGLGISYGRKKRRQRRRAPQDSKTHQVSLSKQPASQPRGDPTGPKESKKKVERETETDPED

B1: P/CAF (p300/CBP-associated factor), HA-tagged, expressed in cells (protein)
chain: MSEAGGAGPGGCGAGAGAGAGPGALPPQPAALPPAPPQGSPCAAAAGGSGACGPATAVAAAGTAEGPGGGGSARIAVKKAQLRSAPRAKKLEKLGVYSACKAEESCKCNGWKNPNPSPTPPRADLQQIIVSLTESCRSCSHALAAHVSHLENVSEEEMNRLLGIVLDVEYLFTCVHKEEDADTKQVYFYLFKLLRKSILQRGKPVVEGSLEKKPPFEKPSIEQGVNNFVQYKFSHLPAKERQTIVELAKMFLNRINYWHLEAPSQRRLRSPNDDISGYKENYTRWLCYCNVPQFCDSLPRYETTQVFGRTLLRSVFTVMRRQLLEQARQEKDKLPLEKRTLILTHFPKFLSMLEEEVYSQNSPIWDQDFLSASSRTSQLGIQTVINPPPVAGTISYNSTSSSLEQPNAGSSSPACKASSGLEANPGEKRKMTDSHVLEEAKKPRVMGDIPMELINEVMSTITDPAAMLGPETNFLSAHSARDEAARLEERRGVIEFHVVGNSLNQKPNKKILMWLVGLQNVFSHQLPRMPKEYITRLVFDPKHKTLALIKDGRVIGGICFRMFPSQGFTEIVFCAVTSNEQVKGYGTHLMNHLKEYHIKHDILNFLTYADEYAIGYFKKQGFSKEIKIPKTKYVGYIKDYEGATLMGCELNPRIPYTEFSVIIKKQKEIIKKLIERKQAQIRKVYPGLSCFKDGVRQIPIESIPGIRETGWKPSGKEKSKEPRDPDQLYSTLKSILQQVKSHQSAWPFMEPVKRTEAPGYYEVIRFPMDLKTMSERLKNRYYVSKKLFMADLQRVFTNCKEYNAAESEYYKCANILEKFFFSKIKEAGLIDK
Question: For B1, which “Superinduction of Tat transactivation activity” value is on record?
Answer: as much as a 30-fold increase upon P/CAF stimulation
